From patent US20190359666A1 (ACADEMIA SINICA, published 2019) come the findings set out here.

Sequences and labels used below:
B3: VEGF-B (ligand, UniProt P49765-2 22-188, looked up)
chain: PVSQPDAPGHQRKVVSWIDVYTRATCQPREVVVPLTVELMGTVAKQLVPSCVTVQRCGGCCPDDGLECVPTGQHQVRMQILMIRYPSSQLGEMSLEEHSQCECRPKKKDSAVKPDSPRPLCPRCTQHHQRPDPRTCRCRCRRRSFLRCQGRGLELNPDTCRCRKLRR

For assay [1], the target named is T1, IGF-1 (UniProt P05019 49-118).
T1 construct: Biotinylated IGF-1 is written as the same molecule; also called biotinylated IGF-1; IGF-1-bio
The experiment in a line: biotinylated IGF-1 ELISA on Fc-captured chimera, after overnight in PBS at 37 C, against the 4 C PBS control; experiment 4-81. Here is the method: (§1) Plates were coated with goat anti-human Fc antibody, blocked and then incubated with chimera as in the Fc ELISA. Biotinylated IGF-1 (GroPep) or VEGF-Biotin (R&D Systems VEGF biotinylated with sulfo-NHS-LC-biotin as per instructions (Pierce) was added for 2 hours followed by streptavidin-HRP (Jackson Immunoresearch) for 30 minutes. Chromogenic development with tetramethyl benzidine was performed as described above.
(§2) To test the stability of the present chimeras, some purified chimeras (see, Table 4) were incubated with PBS or a conditioned medium from the MCF-7 cell line overnight at 37° C. and PBS overnight at 4° C. The IGF-1 binding and VEGF binding were measured using the biotinylated IGF-1 and VEGF.

The target of assay [2] is T2, bFGF (UniProt P09038 143-288, limits assumed).
T2 construct: also called basic fibroblast growth factor
The experiment in a line: Biacore SPR, immobilised bFGF; experiment 4-79. Here is the method:
(§3) Biacore binding was performed at David Myszka's laboratory at the University of Utah or at the Genomic Research Center at Academia Sinica. Surfaces of binding protein chimera were made via chemical immobilization on a CM4 chip using standard amine coupling chemistry. […] Excess surface carboxyl activated sites on all four flow cells was blocked using the doubly positively charged species ethylenediamine. Binding experiments (but not immobilizations) in HBS-P (10 mM HEPES pH 7.4, 150 mM NaCl, 0.05% P20), The HBS-P was supplemented with BSA at 0.2 mg/mL, or HBS-P was supplemented with 500 mM NaCl (650 mM NaCl, final concentration). Analytes were also reconstituted in the corresponding buffer. All experiments were performed at 25° C. 1/150 dilutions of phosphoric acid were used to regenerate IGFBP3-Fc surfaces and a sequence of 3 M MgCl₂ followed by 5 M GuCl was used to regenerate surfaces immobilized with growth factor. Dissociation constants reported below used immobilized binding protein unless noted. Differences between binding constants may be expected between growth factor immobilization and chimera immobilization.

Assay [3] addresses T1, IGF-1. The experiment in a line: Biacore SPR; experiment 4-79. Here is the method: as §3
Assay [4] deals with T1, IGF-1. In words: biotinylated IGF-1 ELISA on Fc-captured chimera, 4 C PBS control (the reference); experiment 4-81. The protocol:
as §1, §2

Assay [5] concerns the target T1, IGF-1. The experiment in a line: biotinylated IGF-1 ELISA on Fc-captured chimera, after overnight in MCF-7 conditioned medium at 37 C, against the 4 C PBS control; experiment 4-81. Here is the method: as §1, §2
Another assay has as its target T3, PDGF AB (UniProt P04085 87-211; P01127 82-190, limits assumed).
T3 construct: Heterodimer by its name
The experiment in a line: binding test, fragment as ligand, growth factor in 0.65 M NaCl.

The assay “VEGF-B” deals with B3. The description is as above.
Assay [6] addresses T1, IGF-1. The assay is described as above.
A further assay concerns the target IGF-2 (UniProt P01344 25-91). Described as above.
In assay [7] the target is T2, bFGF. The assay is described as above.
The target in another assay is T4, wild-type IGFBP3 (human, UniProt P17936 28-291).
T4 construct: also called human IGFBP3
The experiment in a line: summary of the foregoing examples; method not given.

Assay [8] deals with T1, IGF-1. In words: biotinylated IGF-1 ELISA on Fc-captured chimera, 4 C PBS control (the reference); experiment 3-192. The protocol: as §1, §2
The target in assay [9] is T1, IGF-1. The experiment in a line: biotinylated IGF-1 ELISA on Fc-captured chimera, after overnight in MCF-7 conditioned medium at 37 C, against the 4 C PBS control; experiment 3-192. Here is the method: as §1, §2
The target in assay [10] is T1, IGF-1. The experiment in a line: biotinylated IGF-1 ELISA on Fc-captured chimera, after overnight in PBS at 37 C, against the 4 C PBS control; experiment 3-192. The protocol:
as §1, §2

The target in a further assay is T5, nrgbx (UniProt Q02297-6 2-246, limits assumed).
T5 construct: also called neuregulin
T5 sequence (looked up): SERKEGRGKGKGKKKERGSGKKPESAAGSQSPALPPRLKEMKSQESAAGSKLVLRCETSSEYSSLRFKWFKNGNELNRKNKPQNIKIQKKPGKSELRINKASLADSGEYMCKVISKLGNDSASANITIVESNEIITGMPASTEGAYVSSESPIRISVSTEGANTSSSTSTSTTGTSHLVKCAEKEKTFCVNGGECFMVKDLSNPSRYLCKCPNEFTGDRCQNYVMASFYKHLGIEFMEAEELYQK
The experiment in a line: binding test, fragment as ligand, growth factor in 0.65 M NaCl.

T2 sequence (P09038 143-288 limits assumed): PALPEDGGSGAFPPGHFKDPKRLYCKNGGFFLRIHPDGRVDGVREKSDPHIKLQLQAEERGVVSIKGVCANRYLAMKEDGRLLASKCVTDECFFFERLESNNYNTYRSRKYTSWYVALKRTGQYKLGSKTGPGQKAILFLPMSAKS
T3 sequence (P01127 82-190 limits assumed, chain 2 of 2, other chains not shown): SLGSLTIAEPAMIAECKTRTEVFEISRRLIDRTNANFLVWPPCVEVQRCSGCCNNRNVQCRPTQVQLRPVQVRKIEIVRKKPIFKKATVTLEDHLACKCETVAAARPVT
T1 sequence (P05019 49-118 limits assumed): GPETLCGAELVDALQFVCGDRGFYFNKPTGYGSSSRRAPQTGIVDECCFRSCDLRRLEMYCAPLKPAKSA
Sequence of IGF-2 (P01344 25-91 limits assumed): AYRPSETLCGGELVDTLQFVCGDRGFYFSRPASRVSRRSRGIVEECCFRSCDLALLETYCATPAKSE

B1: IGFBP3-Fc-2 (Fc fusion)
chain: GASSAGLGPVVRCEPCDARALAQCAPPPAVCAELVREPGCGCCLTCALSEGQPCGIYTERCGSGLRCQPSPDEARPLQALLDGRGLCVNASAVSRPAPPAPGNASESEEDRSAGSVESPSVSSTHRVSDPKFHPKGHAKDSQRYKVDYESQSTDTQNFSSESKRETEYGPCRREMEDTLNHLKFLNVLSPRGVHIPNCDKKGFYKKKQCRPSKGRKRGFCWCVDKYGQPLPGYTTKGKEDVHCYSMQSKVECPPCPAPPVAGPSVFLFPPKPKDQLMISRTPEVTCVVVDVSHEDPEVKFNWYVDGVEVHNAKTKPREEQYNSTYRVVSVLTVLHQDWLNGKEYKCKVSNKGLPSSIEKTISKAKGQPREPQVYTLPPSREEMTKNQVSLTCLVKGFYPSDIAVEWESNGQPENNYKTTPPVLDSDGSFFLYSKLTVDKSRWQQGNVFSCSVMHEGLHNHYTQKSLSLSPGK
notes: IGFBP3 with IGFBP3 linker deletion 2, fused to Fc; dimeric; also called 3(del2)3; 3(del2)3Fc
On to B1, for which the “IGF-1 binding remaining over controls” value turned out to be 72% in the assay with IGF-1 [1], 100% with IGF-1 [4] and 43% with IGF-1 [5]. Moreover, the figures for the Kd with bFGF [2] and with IGF-1 [3] were 4.32 nM and 0.32 nM, respectively.

B2: 4141 (other)
chain: GASSAGLGPVVRCEPCDARALAQCAPPPAVCAELVREPGCGCCLTCALSEGQPCGIYTERCGSGLRCQPSPDEARPLQALLDGRGLCVNASAVSKGHAKDSQRYKVDYESQSTDTQNFSSESKRETEYVECPPCPAPPVAGPSVFLFPPKPKDQLMISRTPEVTCVVVDVSHEDPEVKFNWYVDGVEVHNAKTKPREEQYNSTYRVVSVLTVLHQDWLNGKEYKCKVSNKGLPSSIEKTISKAKGQPREPQVYTLPPSREEMTKNQVSLTCLVKGFYPSDIAVEWESNGQPENNYKTTPPVLDSDGSFFLYSKLTVDKSRWQQGNVFSCSVMHEGLHNHYTQKSLSLSPGK
notes: Fragment of BP3; also called N-terminus plus partial linker
Regarding B2, the binding result with PDGF AB, with VEGF-B, with IGF-1 [6], with IGF-2 and in the assay with bFGF [7] was “binds” in each case.

For the molecule B3, the binding result with wild-type IGFBP3 was “binds”.

B4: IGFBP3-GS16-VEGF-Fc (Fc fusion)
chain: GASSAGLGPVVRCEPCDARALAQCAPPPAVCAELVREPGCGCCLTCALSEGQPCGIYTERCGSGLRCQPSPDEARPLQALLDGRGLCVNASAVSKGHAKDSQRYKVDYESQSTDTQNFSSESKRETEYGPCRREMEDTLNHLKFLNVLSPRGVHIPNCDKKGFYKKKQCRPSKGRKRGFCWCVDKYGQPLPGYTTKGKEDVHCYSMQSKGGGGSGGGGSGGGGSGIYIFISDTGRPFVEMYSEIPEIIHMTEGRELVIPCRVTSPNITVTLKKFPLDTLIPDGKRIIWDSRKGFIISNATYKEIGLLTCEATVNGHLYKTNYLTHRQGYRIYDVVLSPSHGIELSVGEKLVLNCTARTELNVGIDFNWEYPSSKHQHKKLVNRDLKTQSGSEMKKFLSTLTIDGVTRSDQGLYTCAASSGLMTKKNSTFVRVHEKVECPPCPAPPVAGPSVFLFPPKPKDQLMISRTPEVTCVVVDVSHEDPEVKFNWYVDGVEVHNAKTKPREEQYNSTYRVVSVLTVLHQDWLNGKEYKCKVSNKGLPSSIEKTISKAKGQPREPQVYTLPPSREEMTKNQVSLTCLVKGFYPSDIAVEWESNGQPENNYKTTPPVLDSDGSFFLYSKLTVDKSRWQQGNVFSCSVMHEGLHNHYTQKSLSLSPGK
notes: IGFBP3 with linker deletion 1 - GS 16 linker - v1v2 - Fc; dimeric; also called Chimera B; 3-t3-3-GS16-V1V2
In the case of B4, the “IGF-1 binding remaining over controls” value came out at 100% with IGF-1 [8], 82% with IGF-1 [9] and 167% with IGF-1 [10].

B5: 4142 (other)
chain: GASSAGLGPVVRCEPCDARALAQCAPPPAVCAELVREPGCGCCLTCALSEGQPCGIYTERCGSGLRCQPSPDEARPLQALLDGRGLCVNASAVSVECPPCPAPPVAGPSVFLFPPKPKDQLMISRTPEVTCVVVDVSHEDPEVKFNWYVDGVEVHNAKTKPREEQYNSTYRVVSVLTVLHQDWLNGKEYKCKVSNKGLPSSIEKTISKAKGQPREPQVYTLPPSREEMTKNQVSLTCLVKGFYPSDIAVEWESNGQPENNYKTTPPVLDSDGSFFLYSKLTVDKSRWQQGNVFSCSVMHEGLHNHYTQKSLSLSPGK
notes: Fragment of BP3; also called ligand 4142; N-terminus only
On to B5, for which the binding result in the assay with PDGF AB is on record as “no binding”; with VEGF-B, “no binding”; with IGF-1 [6], “binds”; in the assay with nrgbx, “no binding”; with IGF-2, “binds”; in the assay with bFGF [7] it was “no binding”.

B6: 4382 (other)
chain: GASSAVNASAVSRLRAYLLPAPPAPGNASESEEDRSAGSVESPSVSSTHRVSDPKFHPLHSKIIIIKKGHAKDSQRYKVDYESQSTDTQNFSSESKREVECPPCPAPPVAGPSVFLFPPKPKDQLMISRTPEVTCVVVDVSHEDPEVKFNWYVDGVEVHNAKTKPREEQYNSTYRVVSVLTVLHQDWLNGKEYKCKVSNKGLPSSIEKTISKAKGQPREPQVYTLPPSREEMTKNQVSLTCLVKGFYPSDIAVEWESNGQPENNYKTTPPVLDSDGSFFLYSKLTVDKSRWQQGNVFSCSVMHEGLHNHYTQKSLSLSPGK
notes: Fragment of BP3; also called ligand 4382; linker region alone
Regarding B6, the binding result with PDGF AB, with VEGF-B, in the assay with nrgbx and in the assay with bFGF [7] was “no binding” in each case.

B7: Rantes (ligand, UniProt P13501 24-91, looked up)
chain: SPYSSDTTPCCFAYIARPLPRAHIKEYFYTSGKCSNPAVVFVTRKNRQVCANPEKKWVREYINSLEMS
notes: The excerpts show no construct or source
With B7, the binding result with wild-type IGFBP3 was “binds”.
